B1: Rab GTPase-binding effector protein 1 (Homo sapiens), Q15276 (parent)
chain: MAQPGPASQPDVSLQQRVAELEKINAEFLRAQQQLEQEFNQKRAKFKELYLAKEEDLKRQNAVLQAAQDDLGHLRTQLWEAQAEMENIKAIATVSENTKQEAIDEVKRQWREEVASLQAVMKETVRDYEHQFHLRLEQERTQWAQYRESAEREIADLRRRLSEGQEEENLENEMKKAQEDAEKLRSVVMPMEKEIAALKDKLTEAEDKIKELEASKVKELNHYLEAEKSCRTDLEMYVAVLNTQKSVLQEDAEKLRKELHEVCHLLEQERQQHNQLKHTWQKANDQFLESQRLLMRDMQRMEIVLTSEQLRQVEELKKKDQEDDEQQRLNKRKDHKKADVEEEIKIPVVCALTQEESSAQLSNEEEHLDSTRGSVHSLDAGLLLPSGDPFSKSDNDMFKDGLRRAQSTDSLGTSGSLQSKALGYNYKAKSAGNLDESDFGPLVGADSVSENFDTASLGSLQMPSGFMLTKDQERAIKAMTPEQEETASLLSSVTQGMESAYVSPSGYRLVSETEWNLLQKEVHNAGNKLGRRCDMCSNYEKQLQGIQIQEAETRDQVKKLQLMLRQANDQLEKTMKDKQELEDFIKQSSEDSSHQISALVLRAQASEILLEELQQGLSQAKRDVQEQMAVLMQSREQVSEELVRLQKDNDSLQGKHSLHVSLQQAEDFILPDTTEALRELVLKYREDIINVRTAADHVEEKLKAEILFLKEQIQAEQCLKENLEETLQLEIENCKEEIASISSLKAELERIKVEKGQLESTLREKSQQLESLQEIKISLEEQLKKETAAKATVEQLMFEEKNKAQRLQTELDVSEQVQRDFVKLSQTLQVQLERIRQADSLERIRAILNDTKLTDINQLPET
partner: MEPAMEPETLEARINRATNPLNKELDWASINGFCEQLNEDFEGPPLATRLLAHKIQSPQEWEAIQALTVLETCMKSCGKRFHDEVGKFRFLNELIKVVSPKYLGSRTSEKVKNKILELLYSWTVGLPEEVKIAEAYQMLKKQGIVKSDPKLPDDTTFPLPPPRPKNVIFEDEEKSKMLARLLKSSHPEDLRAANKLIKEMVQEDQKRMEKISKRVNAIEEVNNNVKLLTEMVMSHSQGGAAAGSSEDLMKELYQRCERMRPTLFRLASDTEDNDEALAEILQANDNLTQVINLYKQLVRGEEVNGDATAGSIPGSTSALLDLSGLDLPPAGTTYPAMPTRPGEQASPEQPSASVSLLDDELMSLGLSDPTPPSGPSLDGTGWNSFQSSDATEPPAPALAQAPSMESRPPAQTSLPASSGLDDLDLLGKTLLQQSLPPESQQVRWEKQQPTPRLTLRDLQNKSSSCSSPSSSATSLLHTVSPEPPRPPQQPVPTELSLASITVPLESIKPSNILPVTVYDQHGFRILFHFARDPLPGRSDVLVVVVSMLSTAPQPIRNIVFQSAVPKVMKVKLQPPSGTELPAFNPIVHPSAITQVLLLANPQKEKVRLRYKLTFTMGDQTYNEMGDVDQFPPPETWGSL

Variants of: B1
Conditions: with gga1_human GGA1, Q9UJY5

| effect of a mutation on the interaction | Variant |
| --- | --- |
| decreasing interaction | N568R |
| decreasing interaction | Q561A |
| decreasing interaction | Q566R |
| decreasing interaction | Q566A |
| decreasing interaction | M563R |

Source: IntAct's records for PubMed 15457209
